B1: PTPRD (parent)
chain: FICQATGDPRPKIVWNKKGKKVSN

Variants of: B1
Test: protein stability index of a GFP-peptide fusion (GPS, HEK-293T) (PSI 1-6); higher = more stable
Conditions: c terminus: a fixed tail appended
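Further: lentivirally expressed fusions sorted by FACS into six bins by GFP to DsRed ratio, PSI derived from sequencing read proportions per bin multiplied by bin number.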

Protein stability index, by site and new letter:
F1: G 4.53 | K 3.12 | V 2.75 | L 2.15 | Y 2.26 | W 2.23 | N 3.89 | P 3.76 | M 2.92 | H 3.71 | D 3.65 | E 3.2
P11: W 1.87 | E 2.88 | K 1.45 | S 2.18 | G 2.04 | F 1.52 | D 2.11 | L 3.08 | I 2.31 | A 2.34 | H 2.4 | T 2.07 | N 1.87
G7: N 1.97 | V 1.81 | K 2.39 | T 2.01 | D 1.93 | S 2.02 | I 2.01 | R 1.92 | E 2.81 | L 2.19 | M 1.9 | A 2.15
D8: F 1.85 | T 2.11 | Y 1.45 | N 2.16 | I 2.33 | S 1.92 | A 2.04 | E 1.91 | P 1.8 | Q 1.77 | C 1.94
N16: A 1.72 | F 2.04 | P 1.75 | T 1.91 | S 2.24 | Y 1.89 | E 2.75 | I 1.99 | D 2.45 | Q 2.56 | H 1.74 | V 1.37 | L 1.91
P9: G 1.4 | C 1.49 | H 2.29 | W 1.53 | N 2.31 | D 2.14 | A 1.84 | Y 1.53 | T 1.88 | L 2.49 | S 2 | K 1.54 | M 2.36
K21: G 1.9 | Y 1.49 | E 2.25 | L 2.9 | R 2.49 | C 2.26 | W 1.72 | T 2.45
A5: T 2.08 | V 2.26 | L 2.01 | G 2.07 | W 2.35 | K 3.03 | Q 1.95 | S 1.83 | N 2.09 | H 2.2 | E 1.92 | C 2.12 | R 2.24 | Y 2.25
R10: P 2.41 | S 1.81 | Q 2.06 | M 2.58 | A 1.98 | D 1.82 | H 1.79 | V 1.88 | F 1.89 | E 1.61 | K 2.95
I13: N 1.88 | M 1.51 | L 1.45 | S 1.52 | K 1.74 | Y 1.86 | T 1.73 | E 2.1 | V 2.97 | P 1.75 | F 1.62 | C 1.99 | G 2.6
G19: H 1.9 | W 1.84 | Q 2.4 | V 1.71 | S 1.7 | K 1.87 | T 2.14 | F 2.51 | Y 1.27 | D 1.71 | P 1.74 | N 1.56
K12: Y 1.41 | S 2.17 | G 2.28 | R 1.44 | E 1.52 | I 1.89 | C 1.9 | H 1.86 | D 1.18 | P 1.96
Q4: I 1.84 | D 1.87 | C 1.8 | N 2.03 | G 1.88 | S 1.58 | K 2.42 | T 3.05 | W 2.95 | V 2.08 | Y 1.37 | M 1.29 | A 1.61
K17: A 1.37 | E 1.34 | H 1.96 | N 2.31 | T 1.55 | D 1.74 | R 2.21 | I 1.31 | F 1.56 | V 1.9 | P 2.81 | C 1.92
